Source: paper PMC3537852

How the values were obtained:
[1] = molecular target: myc-tagged full-length mAKAPβ with an internal deletion of residues 1257–1886; test: co-IP
[2] = molecular target: His-mAKAP 1286–1833; test: SPR

Substance | percent reduction of RSK3 binding against full-length mAKAPβ [1] [%] | fold decrease of binding affinity against unphosphorylated RSK3 [2] [fold]
HA-tagged RSK3 (type 3 p90 ribosomal S6 kinase) (from UniProt Q15349 1-733) (enzyme) | > 85 | –
His-RSK3, full-length, ERK and PDK1-phosphorylated (from UniProt Q15349 1-733) (enzyme) | – | 8
His-RSK3, full-length, ERK-phosphorylated (from UniProt Q15349 1-733) (enzyme) | – | 5
